In paper PMC5300155, “Biochemical and biophysical investigations of the interaction between human glucokinase and pro-apoptotic BAD” (PLoS ONE, 2017):

Experiment: Analytical ultracentrifugation sedimentation velocity (oligomerization, shape)
Format: physicochemical
Details: 20°C, 50,000 x g
Method: Sedimentation velocity experiments were conducted with an Optima XLI Ultracentrifuge (Beckman Coulter) using a four-hole rotor with three 420 μL samples in standard double-sector Epon centerpieces equipped with sapphire windows. Absorbance and interference data were collected simultaneously. Size-exclusion purified proteins were concentrated to OD280 nm = 0.3–1.0 prior to centrifugation. For complex formation, proteins were mixed in a 1:1 molar ratio in BAD buffer (0.1 M Tris, 0.1 M KCl, 0.5 M arginine, 2.5 mM CHAPS, 5 mM TCEP, 10% glycerol, pH 8.5) and incubated on ice 30 min prior to the start of the experiment. Experiments were carried out at 20°C and 50,000 x g. Data were analyzed with Ultrascan III software using a minimum of 70 scans per sample for analysis. Van Holde-Weischet analysis was performed to obtain S20,W values.

B1: BAD-GST: recombinant human BAD with N-terminal hexahistidine tag and C-terminal GST fusion, TEV consensus sequence between (protein)
chain: MFQIPEFEPSEQEDSSSAERGLGPSPAGDGPSGSGKHHRQAPGLLWDASHQQEQPTSSSHHGGAGAVEIRSRHSSYPAGTEDDEGMGEEPSPFRGRSRSAPPNLWAAQRYGRELRRMSDEFVDSFKKGLPRPKSAGTATQMRQSSSWTRVFQSWWDRNLGRGSSAPSQ
modifications: left off: His6, N-terminal, state not stated | GST, C-terminal, kept
Molecular weight from sedimentation velocity (oligomerization state) (predicted monomer BAD-GST 47 kDa, dimer): 98 kDa | Frictional ratio f/f0 (sedimentation velocity, unity = compact sphere): 3.9
